“Also recorded” adds a separate entry of the source. Ends that are not written are not given here.
Assays:
brain tissue homogenate = assay: Peptide-phage binding to brain tissue homogenate ex vivo; parameters: species or system mouse
mouse CNS = assay: CVGTNCY peptide-phage biodistribution; format: in vivo
Description: CVGTNCY (SEQ ID NO:2) peptide-phage or control phage were injected iv into mice, after one hour circulation animals were perfused with 20 ml PBS, organs were collected, weighed, and dropped to 1% NP40-LB solution. Organs were homogenized and titer of each tissue was determined. FAM-labeled peptides (2 mM of peptide in PBS) were injected intravenously and 3 hours later the animals were perfused with 20 mL of PBS. The organs were excised, snap-frozen in the vapor of liquid nitrogen, and stored at −80 °C. For confocal microscopy, the tissues were sectioned at 15 μm and stained with antibodies and DAPI.
To describe the utility of CVGTNCY (SEQ ID NO:2) peptide as a systemic CNS homing peptide, the biodistribution of CVGTNCY (SEQ ID NO:2) peptide-phage as well as peptide-functionalized AgNPs were analyzed in rodents. […] No significant difference between CVGTNCY (SEQ ID NO:2) and G7 titers was determined in the rest of the analyzed organs/tissues).

WT-GBM = assay: Peptide-phage homing in glioma-bearing mice; format: in vivo, mouse; details: peptide-phage i.v., 1 h
Description: (§1) Animal experimentation procedures were approved by the Estonian Ministry of Agriculture, Committee of Animal Experimentation, Project #48 and #159. Balb/c mice and Athymic nude mice (HD) were housed in a pathogen-free environment at the Animal Facility of the Institute of Biomedicine and Translational Medicine, University of Tartu (Tartu, Estonia). For induction of orthotopic GBM xenografts in nude mice, 7×10^5 (WT-GBM, VEGFko GBM) cells were implanted intracranially in the right striatum of the brain (ccordinates: 2 mm laterally and 2 mm posteriorly from bregma and at 2.5 mm depth). Intracranial tumors developed for 6-7 days (WT-GBM) and 12-14 days (VEGFko GBM) before performing experiments.
(§2) Homing of CVGTNCY (SEQ ID NO:2) was analyzed in angiogenic WT-GBM and infiltrative VEGFko GBM models. First, CVGTNCY (SEQ ID NO:2) peptide-phage homing was evaluated based on titer after systemic injection into the glioma-bearing mice and perfusion with PBS.

VEGFko GBM = assay: Peptide-phage homing in glioma-bearing mice; format: in vivo, mouse; details: peptide-phage i.v., 1 h
Description: as §1, §2

mouse brain = assay: In vivo play-off screen with 4 CX4CYX peptides; details: compared to CAGALCY
rat brain = assay: Peptide-phage biodistribution after i.v. injection, rats; format: in vivo; details: 1 h
Description: For titering-based biodistribution studies, nucleotide sequences coding for peptides of interest were cloned into T7 phage genomic DNA to be expressed on the phage surface as C-terminal fusions to capsid protein. The cloning was performed using complementary oligonucleotides, the phage clones were amplified, and purified as described in (Põšnograjeva, et al., 2022). 5×10^9 pfu of peptide-phage clone was injected i.v. into male Balb/C mice or 5×10^10 pfu of phage was injected into female Sprague-Dawley rats (n=3). 60 min later, the animals were anesthetized and perfused with PBS. The tissues were collected, homogenized, and the amount of phage in tissue lysates was determined by titering using E. coli strain BLT5615.
The brain selectivity of SRRVISRAKLAAAL (SEQ ID NO:9) phage following a systemic administration was studied in mice and rats by determining the titer of […] (SEQ ID NO:9) and control phage in multiple control tissues.

Neuro2A cells = assay: In vitro AgNP binding and internalization; format: cell-based, mouse; details: pre-incubated with 100 μM free peptide, 1 h, 37 °C
Description: To assess the binding and uptake of silver nanoparticles functionalized with Cerepep, Neuro2A were cultured in 24-well plates on polylysine coated glass coverslips until 80-90% confluency. Biotinylated Cerepep peptide or biotin as a non-targeted control and CF555 dye were conjugated to neutravidin-AgNPs prepared as described previously (Tobi et al., 2021). Some samples were pre-incubated with 100 μM Cerepep peptide (Ac-SERVISRAKLAAAL-OH (SEQ ID NO:9), where Ac-acetylation) at 37 °C for 1 h to assess whether the binding and internalization of particles is peptide-dependent. 10 μl (OD=100) of CP-AgNPs or control biotin-AgNPs were added to cells in 500 μl of media and incubated at 37 °C for 1h. In some samples, the cell surface-bound AgNPs were removed with a freshly prepared etching solution containing 10 mM of Na2S2O3 and K3Fe(CN)6 in PBS, which was applied for 3 min. All the samples were washed with DPBS to remove unbound AgNPs. The cells were fixed in methanol, stained with DAPI and analyzed with confocal microscopy as described above.
Next, the interaction of cultured Neuro2A cells with neutravidin-AgNPs labeled with NHS-CF555 dye and functionalized with biotinylated SRRVISRAKLAAAL (SEQ ID NO: 9) (CP-AgNPs) was tested.

Substance	binding to brain tissue homogenate ex vivo in the presence of whole blood (brain tissue homogenate; with blood sample, p<0.05)	binding to brain tissue homogenate ex vivo (brain tissue homogenate; without blood)	homing preference (mouse CNS; mouse, in vivo)	homing to other organs (mouse CNS; peptide-phage i.v., 1 h, mice)	level in CNS and eyes compared to control G7 phage (mouse CNS; peptide-phage i.v., 1 h, mice)	regional homing in CNS (mouse CNS; peptide-phage i.v., 1 h, mice)	ratio of CVGTNCY over G7, normal brain vs GBM (WT-GBM; WT-GBM and VEGFko GBM)	accumulation in WT-GBM compared to normal brain parenchyma (WT-GBM)	accumulation in VEGFko GBM compared to normal brain parenchyma (VEGFko GBM)	representation in the brain (mouse brain)	brain selectivity (titer in brain vs control tissues) (rat brain)	effect of free peptide on binding and internalization of CP-AgNPs (Neuro2A cells)
CVGTNCY	significantly increase binding	no binding was detected; also recorded: significantly disrupted	homes preferentially to the eyes/brain/CNS	did not show a trend of homing	High level	tendency to home more to the hippocampus, frontal cortex and cerebellum	higher in the normal brain parenchyma than in GBMs	6 times	2 times	highest representation in the brain		
SRRVISRAKLAAAL [Cerepep, SRRVISRAKLAAAL]											highest accumulation in the brain and low accumulation in all other tested tissues	abolished
